Results taken from patent publication US11230581B2, “Peptides and combination of peptides for use in immunotherapy against ovarian cancer and other cancers” (Immatics Biotechnologies GmbH, priority 2015, dated 2022).

Biological target: HLA-A*02:01 (Homo sapiens, UniProt P04439, D140Y/D185E/D98H/E176V/E277Q/G131W/G231S/I119V/I121R/I166T/I218V/L300P/L318F/N151K/N90K/P208A/P217A/Q86G/Q94H/R138H/R169H/T345S)
Test: MHC binding assay (UV-ligand exchange, β2m ELISA, peptide exchange yield)
Settings: binding of HLA-class I restricted peptides to HLA-A*02:01, UV-ligand exchange
Outline: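 Yield of stabilized complexes quantified via the β2m light chain in an ELISA (streptavidin capture, 100-fold diluted monomers, HRP anti-β2m 2 ug/ml at 37 °C, TMB, A450). The complexes come from UV-triggered replacement of a photocleavable ligand by the candidate peptide.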

Substance | Peptide exchange (MHC class I binding score, peptide exchange yield)
89 (YILPTETIYV; listed as Homo sapiens) [compound 89] | “++++” (≥75% = ++++)
228 (AMQEYIAVV; listed as Homo sapiens) [compound 228] | “++” (≥20% = ++)
367 (SLQNHNHQL; listed as Homo sapiens) [compound 367] | “+++” (≥50 = +++)
47 (ILLSVPLLVV; listed as Homo sapiens) [compound 47] | “++” (≥20% = ++)
388 (SLTIDGIRYV; listed as Homo sapiens) [compound 388] | “+++” (≥50 = +++)
235 (YLNDLHEVLL; listed as Homo sapiens) [compound 235] | “++++” (≥75% = ++++)
363 (KVLDVSDLESV; listed as Homo sapiens) [compound 363] | “++” (≥20% = ++)
348 (ILLDVKTRL; listed as Homo sapiens) [compound 348] | “++++” (≥75% = ++++)
166 (YLNHLEPPV; listed as Homo sapiens) [compound 166] | “+++” (≥50 = +++)
224 (TLIDAQWVL; listed as Homo sapiens) [compound 224] | “+++” (≥50 = +++)
273 (NLFQSVREV; listed as Homo sapiens) [compound 273] | “++” (≥20% = ++)
374 (FLLQQHLISA; listed as Homo sapiens) [compound 374] | “++” (≥20% = ++)
344 (YLQDQHLLLTV; listed as Homo sapiens) [compound 344] | “+++” (≥50 = +++)
588 (SLLPLSHLV; listed as Homo sapiens) [compound 588] | “+++” (≥50 = +++)
403 (KLYDRILRV; listed as Homo sapiens) [compound 403] | “++” (≥20% = ++)
321 (GLFEDVTQPGILL; listed as Homo sapiens) [compound 321] | “++++” (≥75% = ++++)
490 (FLLQHVQEL; listed as Homo sapiens) [compound 490] | “+++” (≥50 = +++)
358 (ALDEYTSEL; listed as Homo sapiens) [compound 358] | “++++” (≥75% = ++++)
337 (HLLSELEAAPYL; listed as Homo sapiens) [compound 337] | “++++” (≥75% = ++++)
591 (SMAELDIKL; listed as Homo sapiens) [compound 591] | “+++” (≥50 = +++)
376 (AMFESSQNVLL; listed as Homo sapiens) [compound 376] | “++” (≥20% = ++)
94 (YLIDIKTIAI; listed as Homo sapiens) [compound 94] | “++” (≥20% = ++)

Substance | Peptide exchange (MHC class I binding score, peptide exchange yield)
118 (KLIDNNINV; listed as Homo sapiens) [compound 118] | “+++” (≥50 = +++)
43 (VLSSLEINI; listed as Homo sapiens) [compound 43] | “++” (≥20% = ++)
54 (SLLEQGKEPWMV; listed as Homo sapiens) [compound 54] | “+++” (≥50 = +++)
468 (YLRSVGDGETV; listed as Homo sapiens) [compound 468] | “+++” (≥50 = +++)
431 (SLVNVVPKL; listed as Homo sapiens) [compound 431] | “++” (≥20% = ++)
107 (FLQPVDDTQHL; listed as Homo sapiens) [compound 107] | “+++” (≥50 = +++)
145 (FLATSGTLAGI; listed as Homo sapiens) [compound 145] | “++” (≥20% = ++)
7 (SLVGLLLYL; listed as Homo sapiens) [compound 7] | “++++” (≥75% = ++++)
22 (IMEENPGIFAV; listed as Homo sapiens) [compound 22] | “+++” (≥50 = +++)
613 (RLLPPGAVVAV; listed as Homo sapiens) [compound 613] | “+++” (≥50 = +++)
518 (KLNAEVACV; listed as Homo sapiens) [compound 518] | “+++” (≥50 = +++)
227 (ALMNTLLYL; listed as Homo sapiens) [compound 227] | “++” (≥20% = ++)
93 (LLQAIKLYL; listed as Homo sapiens) [compound 93] | “++” (≥20% = ++)
46 (ILTEENIHL; listed as Homo sapiens) [compound 46] | “+++” (≥50 = +++)
538 (LLLAHIIAL; listed as Homo sapiens) [compound 538] | “++” (≥20% = ++)
515 (LLQELVLFL; listed as Homo sapiens) [compound 515] | “+++” (≥50 = +++)
160 (FLFDEEIEQI; listed as Homo sapiens) [compound 160] | “+++” (≥50 = +++)
611 (YLLDDGTLVV; listed as Homo sapiens) [compound 611] | “++++” (≥75% = ++++)
608 (SLLSVSHAL; listed as Homo sapiens) [compound 608] | “+++” (≥50 = +++)
313 (VLFDDELLMV; listed as Homo sapiens) [compound 313] | “+++” (≥50 = +++)
444 (GLLRDEALAEV; listed as Homo sapiens) [compound 444] | “+++” (≥50 = +++)
463 (SLVESHLSDQLTL; listed as Homo sapiens) [compound 463] | “+++” (≥50 = +++)

Substance | Peptide exchange (MHC class I binding score, peptide exchange yield)
25 (FLPDEPYIKV; listed as Homo sapiens) [compound 25] | “+++” (≥50 = +++)
167 (KVLEVTEEFGV; listed as Homo sapiens) [compound 167] | “+++” (≥50 = +++)
453 (KLLEATSAV; listed as Homo sapiens) [compound 453] | “++” (≥20% = ++)
351 (SLIPNLRNV; listed as Homo sapiens) [compound 351] | “+++” (≥50 = +++)
310 (FLVDTPLARA; listed as Homo sapiens) [compound 310] | “++++” (≥75% = ++++)
234 (ALMEDTGRQML; listed as Homo sapiens) [compound 234] | “++” (≥20% = ++)
565 (ALQETPTSV; listed as Homo sapiens) [compound 565] | “++” (≥20% = ++)
530 (VMYADIGGMDI; listed as Homo sapiens) [compound 530] | “+++” (≥50 = +++)
513 (SLWPSPEQL; listed as Homo sapiens) [compound 513] | “++” (≥20% = ++)
616 (VLIDEVESL; listed as Homo sapiens) [compound 616] | “+++” (≥50 = +++)
250 (ALSEEGLLVYL; listed as Homo sapiens) [compound 250] | “+++” (≥50 = +++)
199 (ALQDVPLSSV; listed as Homo sapiens) [compound 199] | “+++” (≥50 = +++)
98 (LIIDQADIYL; listed as Homo sapiens) [compound 98] | “+++” (≥50 = +++)
229 (RLPGPLGTV; listed as Homo sapiens) [compound 229] | “++” (≥20% = ++)
557 (KLYDDMIRL; listed as Homo sapiens) [compound 557] | “+++” (≥50 = +++)
41 (SLMPHIPGL; listed as Homo sapiens) [compound 41] | “+++” (≥50 = +++)
48 (ALAELYEDEV; listed as Homo sapiens) [compound 48] | “+++” (≥50 = +++)
433 (AMLNEPWAV; listed as Homo sapiens) [compound 433] | “+++” (≥50 = +++)
395 (ALALGGIAVV; listed as Homo sapiens) [compound 395] | “++++” (≥75% = ++++)
159 (GLVGNPLPSV; listed as Homo sapiens) [compound 159] | “++++” (≥75% = ++++)
345 (VIWKALIHL; listed as Homo sapiens) [compound 345] | “+++” (≥50 = +++)
525 (VLLEAGEGLVTI; listed as Homo sapiens) [compound 525] | “+++” (≥50 = +++)
